Source: patent US20220396813
Numbering of substitutions follows the chain as printed.

Legend:
Test in all cases: cell_activity
[1] = tested on: T1, Rec5 WP_109859198.1 (Aggregatibacter segnis); conditions: HEK293T inversion; background 0.265
T1 sequence: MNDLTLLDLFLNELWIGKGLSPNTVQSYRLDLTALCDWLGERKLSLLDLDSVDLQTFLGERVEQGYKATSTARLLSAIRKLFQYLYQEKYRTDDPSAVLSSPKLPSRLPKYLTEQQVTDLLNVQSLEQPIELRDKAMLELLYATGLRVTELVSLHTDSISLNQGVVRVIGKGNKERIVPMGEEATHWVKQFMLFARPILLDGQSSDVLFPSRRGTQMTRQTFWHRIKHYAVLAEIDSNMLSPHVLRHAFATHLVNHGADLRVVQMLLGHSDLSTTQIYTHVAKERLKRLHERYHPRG

[2] = tested on: T2, Rec2 WP_006717173.1 (Aggregatibacter segnis); conditions: HEK293T inversion; background 0.2565; repeat 0.27 vs 0.265
T2 sequence: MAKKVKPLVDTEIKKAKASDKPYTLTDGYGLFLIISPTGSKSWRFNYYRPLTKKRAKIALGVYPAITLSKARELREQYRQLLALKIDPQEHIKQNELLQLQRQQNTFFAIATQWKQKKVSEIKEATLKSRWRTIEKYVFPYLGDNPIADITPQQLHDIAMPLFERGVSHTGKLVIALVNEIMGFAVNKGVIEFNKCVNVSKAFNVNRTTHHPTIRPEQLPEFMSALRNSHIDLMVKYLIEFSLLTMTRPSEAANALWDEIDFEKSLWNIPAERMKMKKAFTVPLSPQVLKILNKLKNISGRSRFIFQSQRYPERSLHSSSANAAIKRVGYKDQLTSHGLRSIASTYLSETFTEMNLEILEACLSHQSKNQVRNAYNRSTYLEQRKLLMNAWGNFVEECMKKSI

[3] = tested on: T3, Rec4 WP_006719234.1 (Aggregatibacter segnis); conditions: HEK293T inversion; background 0.2565
T3 sequence: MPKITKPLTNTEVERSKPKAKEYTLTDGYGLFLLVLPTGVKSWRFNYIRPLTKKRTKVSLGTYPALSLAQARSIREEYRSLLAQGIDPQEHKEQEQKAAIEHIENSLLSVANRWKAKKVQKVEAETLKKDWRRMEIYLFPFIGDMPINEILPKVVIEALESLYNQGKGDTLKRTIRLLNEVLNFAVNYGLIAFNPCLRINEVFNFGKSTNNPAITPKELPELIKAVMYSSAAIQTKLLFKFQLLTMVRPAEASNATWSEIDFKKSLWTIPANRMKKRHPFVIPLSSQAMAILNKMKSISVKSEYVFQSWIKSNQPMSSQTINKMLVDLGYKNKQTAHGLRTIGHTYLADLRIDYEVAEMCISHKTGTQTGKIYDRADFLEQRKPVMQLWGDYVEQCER

[4] = tested on: T4, Rec7 WP_005715799.1 (Aggregatibacter segnis); conditions: HEK293T inversion; background 0.2565
T4 sequence: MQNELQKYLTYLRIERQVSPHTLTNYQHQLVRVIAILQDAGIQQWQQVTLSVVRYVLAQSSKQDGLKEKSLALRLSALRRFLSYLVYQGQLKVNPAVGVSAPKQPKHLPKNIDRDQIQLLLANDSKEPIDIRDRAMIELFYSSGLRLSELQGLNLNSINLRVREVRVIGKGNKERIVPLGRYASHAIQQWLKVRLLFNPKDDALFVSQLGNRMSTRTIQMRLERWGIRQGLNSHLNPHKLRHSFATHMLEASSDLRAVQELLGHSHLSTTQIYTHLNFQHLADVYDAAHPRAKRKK

[5] = tested on: T5, Rec6 WP_006717195.1 (Aggregatibacter segnis); conditions: HEK293T inversion; background 0.2565
T5 sequence: T1 sequence with G40S, D201N

[6] = tested on: T6, Rec3 WP_006718580.1 (Aggregatibacter segnis); conditions: HEK293T inversion; background 0.2565
T6 sequence: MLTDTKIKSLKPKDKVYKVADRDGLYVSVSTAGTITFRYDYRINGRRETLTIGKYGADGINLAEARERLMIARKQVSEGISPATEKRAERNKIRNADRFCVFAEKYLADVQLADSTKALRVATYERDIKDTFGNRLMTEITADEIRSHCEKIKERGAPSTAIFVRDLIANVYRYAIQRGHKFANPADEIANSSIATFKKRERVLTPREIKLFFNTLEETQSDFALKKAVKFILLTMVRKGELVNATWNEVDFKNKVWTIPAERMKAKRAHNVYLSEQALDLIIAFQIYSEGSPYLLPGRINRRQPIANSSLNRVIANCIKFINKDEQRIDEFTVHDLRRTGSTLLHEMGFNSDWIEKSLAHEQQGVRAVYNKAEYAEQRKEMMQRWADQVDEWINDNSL

[7] = tested on: T7, Rec9 WP_017744257.1 (Scytonema hofmannii); conditions: HEK293T inversion; background 0.264
T7 sequence: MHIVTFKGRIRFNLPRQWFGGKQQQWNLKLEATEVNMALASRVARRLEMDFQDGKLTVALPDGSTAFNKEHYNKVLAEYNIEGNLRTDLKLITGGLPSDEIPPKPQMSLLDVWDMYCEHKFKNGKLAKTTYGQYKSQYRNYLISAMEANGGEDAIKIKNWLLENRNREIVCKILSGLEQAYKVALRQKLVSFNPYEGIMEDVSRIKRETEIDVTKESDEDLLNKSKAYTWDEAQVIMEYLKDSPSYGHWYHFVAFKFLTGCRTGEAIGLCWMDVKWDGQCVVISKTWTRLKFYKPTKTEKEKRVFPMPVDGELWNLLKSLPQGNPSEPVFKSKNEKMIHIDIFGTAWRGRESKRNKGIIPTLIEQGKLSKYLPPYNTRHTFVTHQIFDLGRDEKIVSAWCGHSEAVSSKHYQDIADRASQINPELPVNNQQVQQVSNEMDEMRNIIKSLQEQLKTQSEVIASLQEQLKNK

[8] = tested on: T8, Rec10 WP_017746151.1 (Scytonema hofmannii); conditions: HEK293T inversion; background 0.264
T8 sequence: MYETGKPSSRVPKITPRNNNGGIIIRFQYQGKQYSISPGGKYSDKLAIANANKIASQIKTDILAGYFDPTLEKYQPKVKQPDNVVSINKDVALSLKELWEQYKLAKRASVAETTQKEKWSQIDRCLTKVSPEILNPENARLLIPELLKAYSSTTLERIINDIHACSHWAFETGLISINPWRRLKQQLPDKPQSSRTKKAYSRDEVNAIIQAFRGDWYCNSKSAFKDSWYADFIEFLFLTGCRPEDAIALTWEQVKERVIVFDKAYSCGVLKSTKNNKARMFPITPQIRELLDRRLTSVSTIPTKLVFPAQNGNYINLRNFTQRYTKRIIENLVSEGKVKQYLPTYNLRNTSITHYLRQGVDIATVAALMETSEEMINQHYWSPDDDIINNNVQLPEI

[9] = tested on: T9, Rec8 WP_017740000.1 (Scytonema hofmannii); conditions: HEK293T inversion; background 0.264
T9 sequence: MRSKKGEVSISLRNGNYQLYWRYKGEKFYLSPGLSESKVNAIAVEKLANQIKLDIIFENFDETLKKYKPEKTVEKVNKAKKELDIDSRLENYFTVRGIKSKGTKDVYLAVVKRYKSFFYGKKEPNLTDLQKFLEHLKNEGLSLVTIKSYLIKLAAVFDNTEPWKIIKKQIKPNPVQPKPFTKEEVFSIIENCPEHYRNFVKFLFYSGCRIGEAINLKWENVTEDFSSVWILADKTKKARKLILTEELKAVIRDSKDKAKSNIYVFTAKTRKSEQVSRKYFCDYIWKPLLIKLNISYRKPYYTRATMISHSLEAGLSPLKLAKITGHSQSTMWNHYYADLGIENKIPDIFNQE

[10] = tested on: T10, Rec12 WP_038150898.1 (Veillonella montpellierensis); conditions: HEK293T inversion; background 0.07465
T10 sequence: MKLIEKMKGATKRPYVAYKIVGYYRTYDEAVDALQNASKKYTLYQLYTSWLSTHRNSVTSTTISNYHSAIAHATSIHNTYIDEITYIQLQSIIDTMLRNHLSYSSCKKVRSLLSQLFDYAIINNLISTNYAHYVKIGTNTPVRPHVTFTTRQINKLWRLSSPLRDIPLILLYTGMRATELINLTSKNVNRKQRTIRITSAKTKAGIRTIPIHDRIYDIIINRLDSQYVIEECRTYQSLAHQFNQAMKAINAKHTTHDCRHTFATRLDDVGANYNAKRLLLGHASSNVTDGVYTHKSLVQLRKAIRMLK

[11] = tested on: T11, Rec11 WP_038150996.1 (Veillonella montpellierensis); conditions: HEK293T inversion; background 0.07465
T11 sequence: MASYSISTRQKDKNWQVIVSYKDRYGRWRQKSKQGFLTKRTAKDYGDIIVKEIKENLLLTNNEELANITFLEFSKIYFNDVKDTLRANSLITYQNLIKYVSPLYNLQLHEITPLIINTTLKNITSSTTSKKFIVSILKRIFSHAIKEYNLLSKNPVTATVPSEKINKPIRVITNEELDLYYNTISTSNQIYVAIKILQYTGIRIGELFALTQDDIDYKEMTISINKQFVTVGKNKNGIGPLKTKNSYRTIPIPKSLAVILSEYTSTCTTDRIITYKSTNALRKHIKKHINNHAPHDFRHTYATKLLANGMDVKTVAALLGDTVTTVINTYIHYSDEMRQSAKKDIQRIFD

[12] = tested on: T12, Rec23 WP_047824597.1 (Croceicoccus naphthovorans); conditions: HEK293T inversion; background 0.81
T12 sequence: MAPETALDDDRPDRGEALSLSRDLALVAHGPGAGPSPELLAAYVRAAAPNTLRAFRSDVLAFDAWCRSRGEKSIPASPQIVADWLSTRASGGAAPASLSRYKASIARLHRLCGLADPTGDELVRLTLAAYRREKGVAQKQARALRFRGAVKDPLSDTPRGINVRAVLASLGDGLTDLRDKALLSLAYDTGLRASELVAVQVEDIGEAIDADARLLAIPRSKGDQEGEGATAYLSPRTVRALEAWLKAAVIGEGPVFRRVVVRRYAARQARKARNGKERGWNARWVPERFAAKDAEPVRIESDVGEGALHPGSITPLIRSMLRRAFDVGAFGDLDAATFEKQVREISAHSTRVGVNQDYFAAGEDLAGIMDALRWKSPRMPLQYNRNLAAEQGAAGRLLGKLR

[13] = tested on: T13, Rec27 WP_021170377.1 (Sporomusa sp.); conditions: HEK293T inversion; background 6.51
T13 sequence: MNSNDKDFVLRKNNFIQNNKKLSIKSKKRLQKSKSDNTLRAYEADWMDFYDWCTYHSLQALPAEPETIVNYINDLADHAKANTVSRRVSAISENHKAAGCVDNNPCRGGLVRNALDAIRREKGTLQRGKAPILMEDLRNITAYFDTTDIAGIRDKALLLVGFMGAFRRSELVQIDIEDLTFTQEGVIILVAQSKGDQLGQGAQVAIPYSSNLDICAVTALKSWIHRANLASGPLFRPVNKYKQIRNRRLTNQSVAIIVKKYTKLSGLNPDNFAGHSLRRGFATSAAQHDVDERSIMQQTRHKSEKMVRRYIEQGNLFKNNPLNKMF

[14] = tested on: T14, Rec13 WP_126045042.1 (Candidatus Aquarickettsia); conditions: HEK293T inversion; background 5.795
T14 sequence: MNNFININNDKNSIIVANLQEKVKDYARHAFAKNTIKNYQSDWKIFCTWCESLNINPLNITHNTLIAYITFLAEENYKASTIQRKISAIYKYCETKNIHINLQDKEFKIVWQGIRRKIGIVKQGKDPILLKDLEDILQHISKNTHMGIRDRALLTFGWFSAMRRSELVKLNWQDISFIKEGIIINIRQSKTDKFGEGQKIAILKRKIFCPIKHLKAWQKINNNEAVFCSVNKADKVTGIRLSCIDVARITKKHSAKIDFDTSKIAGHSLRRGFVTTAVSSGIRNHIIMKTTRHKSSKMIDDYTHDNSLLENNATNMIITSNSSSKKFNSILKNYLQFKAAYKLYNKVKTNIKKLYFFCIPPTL

In the case of “AATAAAGGGAATNNNNNNNNATTCCCTTTATT (double strand) [Rec2-7 natural site]”, the activity [1] is reported as 0.195 % GFP+, the activity [2] is reported as 0.133 % GFP+ and the activity [3] is reported as 0.134 % GFP+. For the same sequence, the activity [4] was 0.108 % GFP+, the activity [5] was 0.135 % GFP+ and the activity [6] was 0.096 % GFP+.
In the case of “CAATTTTTGAAANNNNNNNTTTCAAAAATTG (double strand) [Rec8-10 natural site]”, the activity [7] is reported as 0.133 % GFP+, the activity [8] is reported as 0.168 % GFP+ and the activity [9] is reported as 0.165 % GFP+.
Sequence “CACTGATATATANNNNNNNTATATATCAGTG (double strand) [Rec11-12 natural site]” has an activity [10] of 0.031 % GFP+ and an activity [11] of 0.0237 % GFP+.
In the case of “GGACATGTGATANNNNNNNNTATCACATGTTG (double strand) [Rec23 natural site]”, the activity [12] is reported as 43.3 % GFP+.
With “TAACTAATGATANNNNNNNNNTATCACTAGTTG (double strand) [Rec27 natural site]” the activity [13] was 62.7 % GFP+.
“TAATGTTCTATANNNNNNNNTATAAAACACTA (double strand) [Rec13 natural site]” gave an activity [14] of 4.46 % GFP+.
